Test results: patent publication US20090092544A1

Tests used:
[1] = target: ROBO1 expressed on ROBO1-expressing HEK293 cells (ROBO1/pcDNA3.1, C-terminal V5 tag) (human) (UniProt Q9Y6N7); assay: cell-based or functional assay
[2] = target: ROBO1 expressed on ROBO1-expressing HEK293 cells (ROBO1/pcDNA3.1, C-terminal V5 tag) (human) (UniProt Q9Y6N7); assay: FACS on ROBO1-expressing HEK293 cells, signal intensity digitized

UniProt Q9Y6N7, sequence (Q9Y6N7 26-1651): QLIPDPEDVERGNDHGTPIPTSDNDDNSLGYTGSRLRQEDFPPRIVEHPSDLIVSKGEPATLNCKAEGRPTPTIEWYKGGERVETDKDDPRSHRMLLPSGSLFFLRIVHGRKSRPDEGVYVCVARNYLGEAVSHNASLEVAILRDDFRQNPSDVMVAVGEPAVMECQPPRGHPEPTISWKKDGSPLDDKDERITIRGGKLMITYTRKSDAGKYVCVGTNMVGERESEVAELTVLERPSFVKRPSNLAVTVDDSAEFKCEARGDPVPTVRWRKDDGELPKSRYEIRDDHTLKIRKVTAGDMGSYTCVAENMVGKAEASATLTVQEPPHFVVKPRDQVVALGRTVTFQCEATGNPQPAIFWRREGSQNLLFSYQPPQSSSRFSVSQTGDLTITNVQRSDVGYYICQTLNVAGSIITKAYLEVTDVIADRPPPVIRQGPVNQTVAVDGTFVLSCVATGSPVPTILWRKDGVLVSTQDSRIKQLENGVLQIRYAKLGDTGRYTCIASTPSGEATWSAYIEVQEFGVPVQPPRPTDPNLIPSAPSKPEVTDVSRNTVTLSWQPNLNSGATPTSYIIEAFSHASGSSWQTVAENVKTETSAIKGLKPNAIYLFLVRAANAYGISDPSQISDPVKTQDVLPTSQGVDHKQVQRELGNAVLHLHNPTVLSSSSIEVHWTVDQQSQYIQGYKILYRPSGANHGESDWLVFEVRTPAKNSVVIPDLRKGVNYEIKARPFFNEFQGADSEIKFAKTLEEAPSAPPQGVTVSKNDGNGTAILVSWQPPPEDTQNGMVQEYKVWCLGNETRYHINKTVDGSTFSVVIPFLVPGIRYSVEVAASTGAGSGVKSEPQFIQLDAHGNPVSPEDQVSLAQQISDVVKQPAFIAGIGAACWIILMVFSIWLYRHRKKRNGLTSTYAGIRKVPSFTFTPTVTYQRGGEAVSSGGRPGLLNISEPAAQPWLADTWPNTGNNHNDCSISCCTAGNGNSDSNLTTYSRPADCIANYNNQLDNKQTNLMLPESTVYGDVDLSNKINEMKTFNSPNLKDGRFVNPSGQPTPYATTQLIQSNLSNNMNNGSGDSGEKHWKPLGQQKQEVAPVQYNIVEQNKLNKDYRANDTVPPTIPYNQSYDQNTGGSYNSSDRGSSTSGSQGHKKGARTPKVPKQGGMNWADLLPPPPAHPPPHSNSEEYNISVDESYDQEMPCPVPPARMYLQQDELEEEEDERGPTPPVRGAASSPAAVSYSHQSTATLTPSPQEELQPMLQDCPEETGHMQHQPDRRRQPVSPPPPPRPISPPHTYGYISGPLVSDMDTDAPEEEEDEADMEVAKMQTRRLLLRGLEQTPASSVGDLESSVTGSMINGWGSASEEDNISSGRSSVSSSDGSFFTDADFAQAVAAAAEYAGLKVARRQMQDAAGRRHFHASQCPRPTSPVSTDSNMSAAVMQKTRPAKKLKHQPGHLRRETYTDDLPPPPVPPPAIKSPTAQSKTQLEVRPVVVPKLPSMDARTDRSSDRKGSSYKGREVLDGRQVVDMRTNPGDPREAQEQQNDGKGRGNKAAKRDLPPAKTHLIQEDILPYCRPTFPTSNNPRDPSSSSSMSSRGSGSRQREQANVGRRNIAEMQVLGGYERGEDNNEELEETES

- CDC (%), measured value at 0.1 ug/mL [1]: 87.2%
- EC50 [2]: 3.1 nM
B1: B5209B (antibody, from another filing, mouse IgG2b)
scFv: MAEVQLVESGGGVVQPGGSLKLSCAASGFTFSTYDMSWVRQTPDKRLELVATINSNGGSTYYPDSVKGRFTSSRDNAKNILYLQMSSLKSEDTAMYYCAREALLRPPYYALDYWGQGTSVTVSSAGGGGSGGGGSGGGGSGGGGSDILDIQMTQSPASLSASVGETVTITCGASENIYGALTWYQRKQGKSPQLLIYGAINLADDKSSRFSGSGSGRQYSLKISSLHPDDVATYYCQNVLSTPFTFGSGTKLEIKAAGHHHHHH
